Source: publication PMC10368727, “Sequestration of histidine kinases by non-cognate response regulators establishes a threshold level of stimulation for bacterial two-component signaling” (Nature Communications, 2023)

T1: phosphorylated, GFP-tagged HK MtrB (cytosolic catalytic domain) (M. tuberculosis, UniProt P9WGK9 234-567)
T1 construct: also called MtrB~P; P~MtrB-GFP
T1 sequence: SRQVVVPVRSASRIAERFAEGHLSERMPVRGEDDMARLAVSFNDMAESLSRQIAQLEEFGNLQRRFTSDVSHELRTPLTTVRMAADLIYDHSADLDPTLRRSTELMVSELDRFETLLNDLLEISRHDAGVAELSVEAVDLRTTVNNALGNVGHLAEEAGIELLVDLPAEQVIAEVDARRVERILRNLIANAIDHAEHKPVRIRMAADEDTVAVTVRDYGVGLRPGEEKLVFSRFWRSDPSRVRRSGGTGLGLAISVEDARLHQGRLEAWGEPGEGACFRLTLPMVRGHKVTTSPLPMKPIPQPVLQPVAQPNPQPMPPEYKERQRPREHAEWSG


Target: T1, phosphorylated, GFP-tagged HK MtrB …
Assay: MST
Details: both partners purified

Binder | Kd
MtrA^D56N, phosphor-defective mutant of MtrA (natural protein) MDTMRQRILVVDDDASLAEMLTIVLRGEGFDTAVIGDGTQALTAVRELRPDLVLLNLMLPGMNGIDVCRVLRADSGVPIVMLTAKTDTVDVVLGLESGADDYIMKPFKPKELVARVRARLRRNDDEPAEMLSIADVEIDVPAHKVTRNGEQISLTPLEFDLLVALARKPRQVFTRDVLLEQVWGYRHPADTRLVNVHVQRLRAKVEKDPENPTVVLTVRGVGYKAGPP | 371 ± 130 nM
NarL^D61N, phosphor-defective mutant of NarL (natural protein) MSNPQPEKVRVVVGDDHPLFREGVVRALSLSGSVNVVGEADDGAAALELIKAHLPDVALLNYRMPGMDGAQVAAAVRSYELPTRVLLISAHDEPAIVYQALQQGAAGFLLKDSTRTEIVKAVLDCAKGRDVVAPSLVGGLAGEIRQRAAPVAPVLSAREREVLNRIACGQSIPAIAAELYVAPSTVKTHVQRLYEKLGVSDRAAAVAEAMRQRLLD | 78 ± 13 nM
